# According to patent US20130183315A1 (GLENMARK PHARMACEUTICALS S A, published 2013):
# T1: recombinant human OX40-his protein (human, UniProt P43489 29-214)
# T1 construct: Secretion driven by the native signal peptide of human TNFRSF4; also called recombinant histidine tagged human OX40 receptor extracellular domain; recombinant monovalent human OX40 receptor extracellular domain
# T1 sequence: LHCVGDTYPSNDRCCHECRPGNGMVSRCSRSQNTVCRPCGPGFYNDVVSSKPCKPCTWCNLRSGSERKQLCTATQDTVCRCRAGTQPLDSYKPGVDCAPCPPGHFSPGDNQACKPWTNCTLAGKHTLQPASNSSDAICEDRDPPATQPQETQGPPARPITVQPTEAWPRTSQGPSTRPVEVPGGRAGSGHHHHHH
# Key:
# [1] = molecular target: T1, recombinant human OX40-his protein; assay: SPR, antibody captured on protein A, OX40-his as analyte, duplicates; lower of the two duplicate measurements
# Protocol: (§1) Kinetic binding affinity constants (KD) were measured on protein-A captured antibody using recombinant histidine tagged human OX40 receptor extracellular domain as described in Example 1 as analyte. Measurements were conducted on a BIAcore 2000 (GE Healthcare—BIAcore, Uppsala, Sweden) at room temperature, and analyzed with the BiaEvaluation software (BIAcore; v4.1).
# (§2) 10 μl of this diluted stock were subsequently injected on the flow-path 2 of the protein-A CMS chip (30 μl/min) to reach 200-250 RUs. Following this capture step, the recombinant histidine tagged human OX40 receptor extracellular domain was injected at different concentrations (50 nM to 0.4 μM) on the flow-path 1 and 2 (flow-path 1 being used as reference) at a 30 μl/min flow rate. After each binding event, surface was regenerated with glycine buffer pH 1.5 injected for 1 min (10 μl/min)
# Measurements were performed in duplicates with the captured chimeric 1D4 anti-human OX40 antibody immobilized onto the protein-A sensor chip and the recombinant histidine tagged human OX40 receptor extracellular domain as analyte.
# [2] = molecular target: T2, recombinant human OX40-Fc protein (human, UniProt P43489 29-214); assay: blocking ELISA on coated human OX40-Fc; blocked ligand: biotinylated recombinant human OX40L, streptavidin-HRP detection
# T2 construct: also called human TNFRSF4 extracellular domain-Fc fusion protein; HHHH; not shown: Fc region of a human IgG1, EU positions 223-451 as printed
# Protocol: In order to determine if the generated anti-OX40 antibodies can block the binding of OX40L to the OX40 receptor, a blocking ELISA was developed. Ninety-six well-microtiter plates (Costar, USA; distributor VWR AG, Nyon, Switzerland) were coated with 100 μl of recombinant human OX40-Fc (see Example 1) at 2 μg/ml in PBS. Plates were incubated overnight at 4° C. and were then blocked with PBS 2% BSA at RT for one hour. The blocking solution was removed and the hybridoma supernatants or purified antibodies were added to the plate. Five minutes later, 50 μl of biotinylated-recombinant human OX40L at 0.04 mg/ml was added to each well. Plates were incubated at RT for 60 minutes, then washed nine times with PBS 0.01% Tween-20 and HRP-streptavidin (Sigma-Aldrich Chemie GmbH, Buchs, Switzerland) was added at a dilution of 1:2000. Plates were incubated for 30 minutes at RT, washed 9 times with PBS 0.01% Tween-20 and the TMB substrate (Bio-rad Laboratories AG, Reinach, Switzerland) was added to the plates and the reaction stopped after 6 minutes by adding H₂SO₄. Absorbance was then read at 450 nm by a microplate reader (Biotek, USA; distributor: WITTEC AG, Littau, Switzerland).
# [3] = molecular target: T1, recombinant human OX40-his protein; assay: SPR, antibody captured on protein A, OX40-his as analyte
# Protocol: as §1
# A CMS research grade sensor chip (GE Healthcare Europe GmbH, Glattbrugg, Switzerland; BR-1000-14) was activated by injecting 35 μl of a 1:1 N-hydroxysulfosuccinimide (NHS)/1-Ethyl-3-[3-dimethylaminopropyl]carbodiimide Hydrochloride (EDC) solution (v/v; 5 μl/min flow-rate; on flow paths 1 and 2). Protein-A (ref. P7837; Sigma-Aldrich Chemie GmbH, Buchs, Switzerland) was diluted to a final concentration of 50 μg/ml in acetate buffer pH 4.5 (GE, BR-1003-50; one pH unit below pI) and subsequently immobilized on the previously activated CMS sensor chip by injecting 35 μl on both flow path 1 and 2 (5 μl/min); this corresponded to approximately 1500 response units (RUs). The protein-A-CMS sensor chip was then deactivated by injecting 35 μl of ethanolamine solution (5 μl/min). Finally, two injections of 10 μl of glycine solution (GE, ref BR-1003-54; 10 mM; pH 1.5) were performed to release non-crosslinked protein-A molecules.
# as §2
binder,measurement,setting,value
"chimeric 1D4 antibody (antibody, human IgG1, kappa, V domains shown, Biotinylated for the staining of cynomolgus cells; also called 1D4 chimera; 1D4 chimeric antibody) VH: QVTLKESGPGILQPSQTLSLTCSFSGFSLSTSGMGVGWIRQPSGKGLEWLAHIWWDDDKYYNTALKSGLTISKDTSKNQVFLKIASVDTTDTATYYCARIDWDGFAYWGQGTLVTVSS VL: QIVLTQSPAILSASPGEKVTMTCRASSSVSYMHWYQQKPGSSPKPWIYATSNLASGVPARFSGSGSGTSYSLTINRVEAEDAATYYCQQWSSNPWTFGGGTKLEIKR",Kd,[1],91 to 116 nM
same,IC50 (read off the curve),[2],~0.3 µg/mL
same,Kd,[3],91 nM
same,koff,[3],0.00308 s⁻¹
same,kon,[3],34000 M⁻¹ s⁻¹
